The source of these data is US20110225664, “MEGANUCLEASE VARIANTS CLEAVING A DNA TARGET SEQUENCE FROM A GLUTAMINE SYNTHETASE GENE AND USES THEREOF” (Cellectis, published 2011).

What all share (assay): cell_activity; CHO extrachromosomal SSA assay
In series [1] the target is T1, I-CreI heterodimer Mt 3A + Mt 4C (Chlamydomonas reinhardtii (engineered), UniProt P05725;P05725 SEQ:1-167,SEQ:1-167).
T1 chain 1: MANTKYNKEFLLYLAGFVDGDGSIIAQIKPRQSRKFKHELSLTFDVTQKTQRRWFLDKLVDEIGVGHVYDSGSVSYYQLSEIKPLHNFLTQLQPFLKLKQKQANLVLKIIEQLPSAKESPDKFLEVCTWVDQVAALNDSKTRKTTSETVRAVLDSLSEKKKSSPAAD
T1 chain 2: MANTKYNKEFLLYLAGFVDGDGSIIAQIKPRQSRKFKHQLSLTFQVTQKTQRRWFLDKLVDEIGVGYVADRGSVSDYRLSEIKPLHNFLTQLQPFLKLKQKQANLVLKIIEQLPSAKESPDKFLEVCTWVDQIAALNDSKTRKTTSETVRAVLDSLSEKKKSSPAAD
How it is done: (§1) CHO cells were transfected with Polyfect® transfection reagent according to the supplier's protocol (QIAGEN). 72 hours after transfection, the level of Beta galactosidase expression for each transfection was quantified using the Beta-Glo® Assay System (Promega). The Beta-Glo Assay contains a luciferin-galactoside substrate (6-O-β-galactopyranosylluciferin) that can be cleaved by β-galactosidase to form luciferin that is then utilized in a firefly luciferase reaction to generate light. For each transfection, approximately 100,000 cells in 100 μl of medium were combined with an equal volume of Beta-Glo lysis/revelation buffer as described by the manufacturer (Promega). After 30 minutes of incubation at room temperature, signal was measured with a luminometer (Perkin Elmer Victor multilabel plate reader).
(§2) Several variants described in examples 3, 5, 6, 7 and 8 were first recloned in pCLS1768 (FIG. 16). Then, in order to identify the heterodimer displaying the maximal cleavage activity with the GSCHO1 target in CHO cells, I-CreI variants cleaving the GSCHO1.3 or GSCHO1.4 targets (described in examples 3, 5, 6, 7 and 8) were tested together as heterodimers against the GSCHO1 target in the CHO extrachromosomal assay.

Series [2] has as its target T2, I-CreI heterodimer Mt 3A + Mt 4A (Chlamydomonas reinhardtii (engineered), UniProt P05725;P05725 SEQ:1-167,SEQ:1-167).
T2 chain 1: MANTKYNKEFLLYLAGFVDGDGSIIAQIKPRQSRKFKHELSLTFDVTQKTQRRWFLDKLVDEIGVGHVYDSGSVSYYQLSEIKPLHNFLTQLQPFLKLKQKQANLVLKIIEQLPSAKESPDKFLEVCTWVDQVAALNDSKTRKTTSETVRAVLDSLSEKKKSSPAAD
T2 chain 2: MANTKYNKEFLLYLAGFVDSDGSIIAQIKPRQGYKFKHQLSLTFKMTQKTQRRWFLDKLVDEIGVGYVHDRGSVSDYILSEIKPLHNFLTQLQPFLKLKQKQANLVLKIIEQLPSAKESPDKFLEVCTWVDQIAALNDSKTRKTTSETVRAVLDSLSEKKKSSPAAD
How it is done:
as §1, §2

The target in series [3] is T3, I-CreI heterodimer Mt 3C + Mt 4C (Chlamydomonas reinhardtii (engineered), UniProt P05725;P05725 SEQ:1-167,SEQ:1-167).
T3 chain 1: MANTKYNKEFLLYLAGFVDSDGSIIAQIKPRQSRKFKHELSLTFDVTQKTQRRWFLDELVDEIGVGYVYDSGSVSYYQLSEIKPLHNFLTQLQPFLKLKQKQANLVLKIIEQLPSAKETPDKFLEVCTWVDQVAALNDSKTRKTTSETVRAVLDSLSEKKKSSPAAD
T3 chain 2: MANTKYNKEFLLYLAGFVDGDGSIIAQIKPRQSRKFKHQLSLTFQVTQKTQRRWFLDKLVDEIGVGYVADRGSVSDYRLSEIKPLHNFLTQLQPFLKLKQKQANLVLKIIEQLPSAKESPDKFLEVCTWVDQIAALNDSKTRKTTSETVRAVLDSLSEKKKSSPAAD
As for the experimental part: as §1, §2

Series [4] has as its target T4, I-CreI heterodimer Mt 3B + Mt 4B (Chlamydomonas reinhardtii (engineered), UniProt P05725;P05725 SEQ:1-167,SEQ:1-167).
T4 chain 1: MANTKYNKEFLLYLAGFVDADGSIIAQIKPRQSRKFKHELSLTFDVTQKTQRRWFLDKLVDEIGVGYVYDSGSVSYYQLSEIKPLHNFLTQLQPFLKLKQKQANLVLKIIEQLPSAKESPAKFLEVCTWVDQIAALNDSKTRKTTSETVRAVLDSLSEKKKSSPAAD
T4 chain 2: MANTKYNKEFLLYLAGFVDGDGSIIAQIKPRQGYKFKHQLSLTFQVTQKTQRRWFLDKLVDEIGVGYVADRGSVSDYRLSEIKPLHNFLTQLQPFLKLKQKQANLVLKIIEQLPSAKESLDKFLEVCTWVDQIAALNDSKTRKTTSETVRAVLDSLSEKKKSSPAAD
As for the experimental part:
as §1, §2

The target in series [5] is T5, I-CreI heterodimer Mt 3A + Mt 4D (Chlamydomonas reinhardtii (engineered), UniProt P05725;P05725 SEQ:1-167,SEQ:1-167).
T5 chain 1: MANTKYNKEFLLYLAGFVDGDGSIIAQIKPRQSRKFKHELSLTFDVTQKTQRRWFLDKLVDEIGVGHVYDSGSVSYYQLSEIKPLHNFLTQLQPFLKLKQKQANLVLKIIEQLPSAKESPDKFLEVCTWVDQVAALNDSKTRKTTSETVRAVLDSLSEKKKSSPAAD
T5 chain 2: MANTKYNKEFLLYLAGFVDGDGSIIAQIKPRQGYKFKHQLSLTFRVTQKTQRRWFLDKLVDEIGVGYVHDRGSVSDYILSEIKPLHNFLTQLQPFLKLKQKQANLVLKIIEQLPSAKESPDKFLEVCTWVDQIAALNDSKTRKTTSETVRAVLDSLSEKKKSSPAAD
How it is done:
as §1, §2

Series [6] has as its target T6, I-CreI heterodimer Mt 3B + Mt 4C (Chlamydomonas reinhardtii (engineered), UniProt P05725;P05725 SEQ:1-167,SEQ:1-167).
T6 chain 1: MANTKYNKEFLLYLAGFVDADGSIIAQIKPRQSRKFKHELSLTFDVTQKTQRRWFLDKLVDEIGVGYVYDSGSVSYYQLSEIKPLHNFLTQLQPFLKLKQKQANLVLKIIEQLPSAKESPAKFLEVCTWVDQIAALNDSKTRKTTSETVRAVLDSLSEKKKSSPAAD
T6 chain 2: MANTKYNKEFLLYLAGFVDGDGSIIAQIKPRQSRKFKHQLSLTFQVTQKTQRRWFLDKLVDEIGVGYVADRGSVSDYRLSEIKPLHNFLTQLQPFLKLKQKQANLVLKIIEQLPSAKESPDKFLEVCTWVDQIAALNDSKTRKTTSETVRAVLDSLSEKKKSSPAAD
How it is done: as §1, §2

The target of series [7] is T7, I-CreI heterodimer Mt 3C + Mt 4D (Chlamydomonas reinhardtii (engineered), UniProt P05725;P05725 SEQ:1-167,SEQ:1-167).
T7 chain 1: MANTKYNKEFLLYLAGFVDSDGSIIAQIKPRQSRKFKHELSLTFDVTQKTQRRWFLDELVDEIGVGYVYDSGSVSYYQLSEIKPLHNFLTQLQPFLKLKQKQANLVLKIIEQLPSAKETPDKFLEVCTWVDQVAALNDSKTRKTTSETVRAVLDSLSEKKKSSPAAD
T7 chain 2: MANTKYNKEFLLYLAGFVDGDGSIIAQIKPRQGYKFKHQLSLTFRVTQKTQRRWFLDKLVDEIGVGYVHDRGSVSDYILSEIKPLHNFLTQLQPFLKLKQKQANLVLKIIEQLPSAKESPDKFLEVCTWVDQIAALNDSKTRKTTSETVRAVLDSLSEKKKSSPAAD
As for the experimental part: as §1, §2

Series [8] has as its target T8, I-CreI heterodimer Mt 3C + Mt 4B (Chlamydomonas reinhardtii (engineered), UniProt P05725;P05725 SEQ:1-167,SEQ:1-167).
T8 chain 1: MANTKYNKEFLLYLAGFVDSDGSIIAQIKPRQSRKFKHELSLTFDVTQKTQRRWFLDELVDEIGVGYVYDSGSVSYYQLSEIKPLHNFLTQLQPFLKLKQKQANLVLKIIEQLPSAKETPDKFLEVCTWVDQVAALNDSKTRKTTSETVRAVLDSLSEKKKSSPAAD
T8 chain 2: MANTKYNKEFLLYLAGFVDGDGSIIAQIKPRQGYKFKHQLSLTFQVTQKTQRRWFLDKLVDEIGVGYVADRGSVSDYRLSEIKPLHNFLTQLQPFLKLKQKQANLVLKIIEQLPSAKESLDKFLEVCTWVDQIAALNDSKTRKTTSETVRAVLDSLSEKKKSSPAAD
How it is done: as §1, §2

In series [9] the target is T9, I-CreI heterodimer Mt 3A + Mt 4B (Chlamydomonas reinhardtii (engineered), UniProt P05725;P05725 SEQ:1-167,SEQ:1-167).
T9 chain 1: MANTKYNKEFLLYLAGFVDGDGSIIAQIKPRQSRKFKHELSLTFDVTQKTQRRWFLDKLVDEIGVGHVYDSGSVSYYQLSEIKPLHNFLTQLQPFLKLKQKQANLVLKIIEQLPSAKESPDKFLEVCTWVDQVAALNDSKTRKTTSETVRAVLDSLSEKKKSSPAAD
T9 chain 2: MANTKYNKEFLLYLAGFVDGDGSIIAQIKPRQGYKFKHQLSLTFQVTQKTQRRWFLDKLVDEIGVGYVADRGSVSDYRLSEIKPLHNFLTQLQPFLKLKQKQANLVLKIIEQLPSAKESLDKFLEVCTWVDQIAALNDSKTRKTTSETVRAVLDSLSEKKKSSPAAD
How it is done:
as §1, §2

For series [10], the target named is T10, I-CreI heterodimer Mt 3B + Mt 4A (Chlamydomonas reinhardtii (engineered), UniProt P05725;P05725 SEQ:1-167,SEQ:1-167).
T10 chain 1: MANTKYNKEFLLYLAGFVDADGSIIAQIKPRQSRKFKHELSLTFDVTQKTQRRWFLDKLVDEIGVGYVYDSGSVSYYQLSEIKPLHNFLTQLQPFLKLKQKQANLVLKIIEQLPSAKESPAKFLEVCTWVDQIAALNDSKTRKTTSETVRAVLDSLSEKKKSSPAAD
T10 chain 2: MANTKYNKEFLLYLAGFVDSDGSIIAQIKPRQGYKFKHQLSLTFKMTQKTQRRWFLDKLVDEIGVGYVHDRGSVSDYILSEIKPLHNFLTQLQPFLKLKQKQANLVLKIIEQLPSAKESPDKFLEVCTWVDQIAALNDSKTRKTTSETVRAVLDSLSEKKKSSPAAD
How it is done: as §1, §2

In series [11] the target is T11, I-CreI heterodimer Mt 3B + Mt 4D (Chlamydomonas reinhardtii (engineered), UniProt P05725;P05725 SEQ:1-167,SEQ:1-167).
T11 chain 1: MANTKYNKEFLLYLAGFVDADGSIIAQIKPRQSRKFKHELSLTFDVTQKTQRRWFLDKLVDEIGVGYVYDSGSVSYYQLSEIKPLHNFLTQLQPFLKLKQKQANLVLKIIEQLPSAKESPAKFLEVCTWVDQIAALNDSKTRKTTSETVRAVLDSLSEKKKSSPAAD
T11 chain 2: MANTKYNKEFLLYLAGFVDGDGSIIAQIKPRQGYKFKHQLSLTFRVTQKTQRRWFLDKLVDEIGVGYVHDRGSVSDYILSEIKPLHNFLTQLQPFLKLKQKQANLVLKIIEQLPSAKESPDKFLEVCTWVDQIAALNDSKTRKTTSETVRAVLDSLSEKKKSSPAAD
How it is done:
as §1, §2

B1: GSCHO1 (dsDNA)
DNA 1: TGGCATACAAGTTTCTGCCCCAGGGTGAGAAAGTCCAACAATCGTCTGTCA
DNA 2: TGACAGACGATTGTTGGACTTTCTCACCCTGGGGCAGAAACTTGTATGCCA
For the molecule B1, the activity in series [1] was determined as 2e+06 luminescence units; in [2] it was 2.8e+06 luminescence units; in series [3] it was 2.9e+06 luminescence units; in series [4], 3.1e+06 luminescence units; in series [5] it was 2.5e+06 luminescence units; in series [6] it was 3.1e+06 luminescence units. The activity amounted to 2.4e+06 luminescence units in [7]; 2.8e+06 luminescence units in series [8]; 2.3e+06 luminescence units in [9]; 500000 luminescence units in series [10]; 3.1e+06 luminescence units in series [11].
